In publication PMC2726748 (Journal of molecular biology, 2009):

Target: the molecule itself
Assay: crystal structure

B1: recombinant mouse apoptosis inducing factor AIFΔ1–101 (domain or fragment, UniProt Q9Z0X1 102-612, looked up)
chain: GLSPEEKQRRAIASATEGGSVPQIRAPSHVPFLLIGGGTAAFAAARSIRARDPGARVLIVSEDPELPYMRPPLSKELWFSDDPNVTKTLQFRQWNGKERSIYFQPPSFYVSAQDLPNIENGGVAVLTGKKVVHLDVRGNMVKLNDGSQITFEKCLIATGGTPRSLSAIDRAGAEVKSRTTLFRKIGDFRALEKISREVKSITVIGGGFLGSELACALGRKSQASGIEVIQLFPEKGNMGKILPQYLSNWTMEKVKREGVKVMPNAIVQSVGVSGGRLLIKLKDGRKVETDHIVTAVGLEPNVELAKTGGLEIDSDFGGFRVNAELQARSNIWVAGDAACFYDIKLGRRRVEHHDHAVVSGRLAGENMTGAAKPYWHQSMFWSDLGPDVGYEAIGLVDSSLPTVGVFAKATAQDNPKSATEQSGTGIRSESETESEASEITIPPSAPAVPQVPVEGEDYGKGVIFYLRDKVVVGIVLWNVFNRMPIARKIIKDGEQHEDLNEVAKLFNIHED
stoichiometry N: 2
